Reference: US12644128B2, “Method for producing HSL protein having catalytic activity for 2-oxoglutaric acid-dependently oxidizing 4-HPPD inhibitor” (National Agriculture and Food Research Organization, priority 2017, dated 2026)
Entries after “also recorded” stand apart in the source; their conditions may differ.

Legend:
[1] = 4-HPPD inhibitor decomposition activity by HPLC, substrate BBC-OH; format: biochemical; conditions: cell-free synthesized protein; FeCl2, ascorbic acid, 2-oxoglutarate; 30° C. for 3 hours; HPLC
Excerpt: (§1) Then, the decomposition reaction of a 4-HPPD inhibitor was examined in the presence of divalent iron ions, 2-oxoglutarate, and molecular oxygen in a test tube by a method described later using the HIS1 protein prepared by this cell-free protein synthesis system.
(§2) Here, in commercially-available wheat germ extracts, dithiothreitol (DTT) is used as a reducing agent and a protein synthesizing reaction liquid also contains DTT. It was confirmed in advance by liquid chromatography that under the coexistence of divalent iron ions and ascorbic acid, which is a stabilizer for the divalent iron ions, DTT generated radical compounds and secondarily affected the enzyme reaction of HIS1 proteins. For this reason, in the present Example, an unreported protein synthesizing reaction system using Tris (2-carboxyethyl) phosphine (TCEP) as a reducing agent instead of DTT was newly constructed, with which the synthesis of HIS1 proteins and the like was conducted to examine the 4-HPPD inhibitor decomposition activity of these. The decomposition activity was analyzed on the reaction liquid of the protein and the 4-HPPD inhibitor using a high-performance liquid chromatography (mobile phase; 0.5% acetic acid water:acetonitrile=65:35, flow rate; 1 mL/min, feeding; isocratic, column; CAPCELL PAK ADME S5).
Then, the amounts of the synthesized proteins obtained in Examples 1 to 4 as described above were estimated as described below, followed by the analysis on the 4-HPPD inhibitor decomposition activities.
Cell-free protein synthesis was conducted without adding [^14C]-Leucine Leucine under the same conditions as those in the estimation of the synthesized amount to estimate the protein concentration of this translation reaction liquid from the above-described estimation. Then, 100 μl of the translation reaction liquid was subjected to buffer exchange to a basic translation buffer (30 mM HEPES-KOH (pH=7.8), 100 mM KOAc) by using the illustra MicroSpin G-25 column (manufactured by GE Healthcare). The amounts of the solution before and after the buffer exchange were measured and the estimated protein concentration was corrected.
An enzyme reaction liquid was prepared by mixing 250 mM of HEPES-KOH (pH 7.0) with a mixture liquid, which contained 0.25 mM of FeCl2, 1.5 mM of ascorbic acid, 1.5 mM of 2-oxoglutarate, and 0.75 mM of a substrate, and a translation reaction liquid, which contained a synthesized enzyme protein, in a proportion of 40% and 60%, respectively. After incubation at 30° C. for 3 hours, 100% methanol in the same amount as the enzyme reaction liquid was added and sufficiently mixed, followed by being left to stand for 5 minutes on ice. This was subjected to centrifuge separation (20, 400 g, 20 minutes, 4° C.) and the supernatant was passed through Cosmonice Filter W (0.45 μm) (manufactured by Nacalai Tesque, Inc.) to obtain a sample for high-performance liquid chromatography. The analysis on the substrate and the product before and after the enzyme reaction was conducted by loading a column_Pro C18 (150×4.6 mm I.D.) (manufactured by YMC Co., Ltd.) on a high-performance liquid chromatography device_ELITE LaChrom L-2000 series (manufactured by Hitachi, Ltd.). Elution was conducted at a flow speed of 1 mL/min and a column temperature of 40° C. under solvent conditions of acetonitrile:water (1% acetic acid)=55:45 or 50:50 (BBC-OH), acetonitrile:water (1% acetic acid)=45:55 (Sulcotrione), acetonitrile:water (1% acetic acid)=45:55 (Mesotrione), acetonitrile:water (1% acetic acid)=55:45 or 50:50 (tefryltrone), and acetonitrile:water (1% acetic acid)=55:45 or 50:50 (Tembotrione), respectively, and the compound was detected at an ultraviolet wavelength of 286 nm.
(§3) Note that the 5-point scale of the decomposition activity in each of FIGS. 12 to 17 is based on a relative value of the degree of decrease in a substrate-derived peak area detected by HPLC where the degree of decrease in the HIS1 protein was designated by 5. […]

[2] = 4-HPPD inhibitor decomposition activity by HPLC, substrate tefuryltrione; format: biochemical; conditions: cell-free synthesized protein; FeCl2, ascorbic acid, 2-oxoglutarate; 30° C. for 3 hours; HPLC
Excerpt: as §1
as §2, with “S5). […]” for “S5).”
(§4) Cell-free protein synthesis was conducted without adding [^14C]-Leucine Leucine under the same conditions as those in the estimation of the synthesized amount to estimate the protein concentration of this translation reaction liquid from the above-described estimation. […] The amounts of the solution before and after the buffer exchange were measured and the estimated protein concentration was corrected. […]
as §3

[3] = 4-HPPD inhibitor decomposition activity by HPLC, substrate sulcotrione; format: biochemical; conditions: cell-free synthesized protein; FeCl2, ascorbic acid, 2-oxoglutarate; 30° C. for 3 hours; HPLC
Excerpt: as §1
as §2, with “S5). […]” for “S5).”
as §4, §3

[4] = 4-HPPD inhibitor decomposition activity by HPLC, substrate mesotrione; format: biochemical; conditions: cell-free synthesized protein, not shown in the figures
Method: (§5) Then, the amounts of the synthesized proteins obtained in Examples 1 to 4 as described above were estimated as described below, followed by the analysis on the 4-HPPD inhibitor decomposition activities. Cell-free protein synthesis was conducted without adding [^14C]-Leucine Leucine under the same conditions as those in the estimation of the synthesized amount to estimate the protein concentration of this translation reaction liquid from the above-described estimation. Then, 100 μl of the translation reaction liquid was subjected to buffer exchange to a basic translation buffer (30 mM HEPES-KOH (pH=7.8), 100 mM KOAc) by using the illustra MicroSpin G-25 column (manufactured by GE Healthcare). The amounts of the solution before and after the buffer exchange were measured and the estimated protein concentration was corrected. […] Elution was conducted at a flow speed of 1 mL/min and a column temperature of 40° C. under solvent conditions of acetonitrile:water (1% acetic acid)=55:45 or 50:50 (BBC-OH), acetonitrile:water (1% acetic acid)=45:55 (Sulcotrione), acetonitrile:water (1% acetic acid)=45:55 (Mesotrione), acetonitrile:water (1% acetic acid)=55:45 or 50:50 (tefryltrone), and acetonitrile:water (1% acetic acid)=55:45 or 50:50 (Tembotrione), respectively, and the compound was detected at an ultraviolet wavelength of 286 nm.

[5] = 4-HPPD inhibitor decomposition activity by HPLC, substrate tembotrione; format: biochemical; conditions: cell-free synthesized protein, not shown in the figures
Method: as §5

[6] = tested on: benzobicyclon-susceptible cultivar "Yamadawara"; experiment: Resistance to BBC of rice expressing OsHSL1 or its F140H mutant; format: in vivo; conditions: T1 seeds, MS medium containing 0.25 μM BBC, 30° C., bright place, 8 days
Method: Next, the efficacy of the F140H mutation was confirmed using rice. Specifically, first, an mHSL1 gene obtained by modifying phenylalanine at position 140 in a rice HSL1 cDNA gene to histidine was prepared. Subsequently, the mutated gene or an HSL1 gene in which the mutation was not introduced was linked to downstream of the 35S promoter and was cloned together with a hygromycin-resistance gene expression cassette in the binary vector. Then, these vectors were each introduced into a benzobicyclon-susceptible cultivar “Yamadawara” by an agrobacterium method and recombinant rice was grown.
The recombinant rice (T1) seeds thus produced and the seeds of the original cultivar “Yamadawara” were tested and seeded on an MS medium containing 0.25 μM BBC in a sterile manner and grown at 30° C. in a bright place for 8 days.

B1: OsHSL1 protein: rice-derived HSL protein, typically a protein having an amino acid sequence of SEQ ID NO: 4 (protein, listed as Oryza sativa)
chain: MADESWRTPAIVQELAAAGVEEPPSRYVLGEKDRSDELVAAELPEPIPVVDLSRLAGADEAAKLRAALQNWGFFLLTNHGVETSLMDDVLNLAREFFNQPIERKRKFSNLIDGKNFQVEGYGTDRVVTQDQILDWSDRLFLRVEPKEERNLAFWPDHPESFRDVLNEYASRTKRIRDDIVQAMSKLLGLDEDYFFDRLNKAPALARFNYYPPCPRPDLVFGVRPHSDGSLFTILLVDEDVGGLQIQRDGKWYNVQVTPNTLLINLGDTMEVLCNGIFRSPVHRVVTNAERERISLAMFYSVNDEKDIGPAAGLLDENRPARYRKVSVGEFRAGIIGKFSRRERYIDSLKI
BBC-OH decomposition activity [1]: hardly observed; also recorded: only very weak decomposition activity | tefuryltrione decomposition activity [2]: lower than that of the HIS1 protein; also recorded: had the decomposition activity, which was less effective than that of the HIS1 protein | sulcotrione decomposition activity [3]: hardly observed; also recorded: only very weak decomposition activity | mesotrione decomposition activity [4]: only very weak decomposition activity | tembotrione decomposition activity [5]: only very weak decomposition activity | BBC resistance (growth condition) [6]: whitened
